Four molecules from patent US20220204580A1 (AstraZeneca / MedImmune, published 2022) can be followed below.

Numbered stars: 1 amine (or outer) side, 2 acyl side, 3 side chain; on linkers, the order of the positions; unused ones are H or OH. Bridge positions count the residues as written; N and C are the ends. Square brackets hold non-standard residues; d marks the D form. Side chains are listed from the residue outwards. Ends that are not written are not given here. * marks the point of attachment. C18 diacid = O=C(O)CCCCCCCCCCCCCCCCC(=O)*; γGlu = O=C(O)[C@H](CCC(=O)[*:2])N[*:1]; Dab = NCC[C@H](N)C(=O)O; Aib = CC(C)(N)C(=O)O

Assay in all cases: cell-based or functional assay
In assay [1] the target is T1, human amylin receptor (calcitonin receptor co-expressed with receptor activity modifying protein, RAMP3) (human, UniProt P30988 25-474; O60896 24-148).
T1 sequence (looked up) 1: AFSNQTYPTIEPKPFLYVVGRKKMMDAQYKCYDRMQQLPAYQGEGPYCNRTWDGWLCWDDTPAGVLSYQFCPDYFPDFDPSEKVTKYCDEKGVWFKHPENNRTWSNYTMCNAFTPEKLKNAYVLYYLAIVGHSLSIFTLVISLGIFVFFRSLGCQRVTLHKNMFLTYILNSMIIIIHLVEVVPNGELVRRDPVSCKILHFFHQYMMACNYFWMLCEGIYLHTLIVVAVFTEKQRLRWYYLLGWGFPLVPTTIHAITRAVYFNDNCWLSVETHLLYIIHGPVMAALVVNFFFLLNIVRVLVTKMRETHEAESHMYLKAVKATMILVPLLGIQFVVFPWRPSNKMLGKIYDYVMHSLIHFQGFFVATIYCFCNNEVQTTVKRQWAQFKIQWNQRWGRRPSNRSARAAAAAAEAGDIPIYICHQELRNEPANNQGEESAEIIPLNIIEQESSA
T1 sequence (looked up) 2: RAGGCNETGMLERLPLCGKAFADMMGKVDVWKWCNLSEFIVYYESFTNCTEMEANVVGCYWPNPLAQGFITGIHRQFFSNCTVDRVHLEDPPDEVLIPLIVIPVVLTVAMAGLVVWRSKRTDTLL

The target of assay [2] is T2, human calcitonin receptor (human, UniProt P30988 25-474).
T2 sequence (looked up): T1 sequence (looked up) 1

Assay [3] has as its target T3, rat amylin receptor (calcitonin receptor co-expressed with receptor activity modifying protein, RAMP3) (rat, UniProt P32214 25-516; Q9JJ73 23-147).
T3 sequence (looked up) 1: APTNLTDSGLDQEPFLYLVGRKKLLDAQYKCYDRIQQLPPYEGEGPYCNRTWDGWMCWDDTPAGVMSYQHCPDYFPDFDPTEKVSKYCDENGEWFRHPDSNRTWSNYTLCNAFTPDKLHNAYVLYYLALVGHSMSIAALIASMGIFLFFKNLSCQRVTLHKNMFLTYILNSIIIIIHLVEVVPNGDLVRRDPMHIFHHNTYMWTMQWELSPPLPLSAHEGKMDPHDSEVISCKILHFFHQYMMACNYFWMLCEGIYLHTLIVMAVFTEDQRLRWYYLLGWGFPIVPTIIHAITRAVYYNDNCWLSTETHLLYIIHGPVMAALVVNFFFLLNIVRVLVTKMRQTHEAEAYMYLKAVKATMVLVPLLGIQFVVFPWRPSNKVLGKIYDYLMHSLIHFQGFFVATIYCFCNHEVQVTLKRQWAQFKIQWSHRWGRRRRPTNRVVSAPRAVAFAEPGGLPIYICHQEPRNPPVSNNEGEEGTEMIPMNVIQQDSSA
T3 sequence (looked up) 2: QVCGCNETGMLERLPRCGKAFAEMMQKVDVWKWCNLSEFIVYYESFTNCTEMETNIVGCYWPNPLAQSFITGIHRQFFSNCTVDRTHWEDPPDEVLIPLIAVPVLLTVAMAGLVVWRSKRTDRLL

The target in another assay is T4, rat calcitonin receptor (rat, UniProt P32214 25-516).
T4 sequence (looked up): T3 sequence (looked up) 1

B1: Peptide 48 (SEQ ID NO: 48) (peptide)
peptide: K([γGlu-C18 diacid])CNTATCATQRLANFLRHSS[Aib]NFGPILPPTNVGSNTY-NH2
modifications: disulfide 2-7; N-terminus assumed
SMILES: CC[C@H](C)[C@H](NC(=O)[C@@H]1CCCN1C(=O)CNC(=O)[C@H](Cc1ccccc1)NC(=O)[C@H](CC(N)=O)NC(=O)C(C)(C)NC(=O)[C@H](CO)NC(=O)[C@H](CO)NC(=O)[C@H](Cc1c[nH]cn1)NC(=O)[C@H](CCCNC(=N)N)NC(=O)[C@H](CC(C)C)NC(=O)[C@H](Cc1ccccc1)NC(=O)[C@H](CC(N)=O)NC(=O)[C@H](C)NC(=O)[C@H](CC(C)C)NC(=O)[C@H](CCCNC(=N)N)NC(=O)[C@H](CCC(N)=O)NC(=O)[C@@H](NC(=O)[C@H](C)NC(=O)[C@@H]1CSSC[C@H](NC(=O)[C@@H](N)CCCCNC(=O)CC[C@H](NC(=O)CCCCCCCCCCCCCCCCC(=O)O)C(=O)O)C(=O)N[C@@H](CC(N)=O)C(=O)N[C@@H]([C@@H](C)O)C(=O)N[C@@H](C)C(=O)N[C@@H]([C@@H](C)O)C(=O)N1)[C@@H](C)O)C(=O)N[C@@H](CC(C)C)C(=O)N1CCC[C@H]1C(=O)N1CCC[C@H]1C(=O)N[C@H](C(=O)N[C@@H](CC(N)=O)C(=O)N[C@H](C(=O)NCC(=O)N[C@@H](CO)C(=O)N[C@@H](CC(N)=O)C(=O)N[C@H](C(=O)N[C@@H](Cc1ccc(O)cc1)C(N)=O)[C@@H](C)O)C(C)C)[C@@H](C)O
On to B1, for which the “EC50 (cAMP production)” value in assay [1] came to 0.126 nM; in assay [2], 5.27 nM; in assay [3], 0.0048 nM; with rat calcitonin receptor, 2.43 nM. Further, the “Ratio (EC50 hCTR / EC50 hAMYR3)” value in assay [1] amounted to 42.

B2: Peptide 43 (SEQ ID NO: 43) (peptide)
peptide: K([γGlu-C18 diacid])KCNTATCATQRLANFLRHSS[Aib]NFGPILPPTEVGSNTY-NH2
modifications: disulfide 3-8; N-terminus assumed
SMILES: CC[C@H](C)[C@H](NC(=O)[C@@H]1CCCN1C(=O)CNC(=O)[C@H](Cc1ccccc1)NC(=O)[C@H](CC(N)=O)NC(=O)C(C)(C)NC(=O)[C@H](CO)NC(=O)[C@H](CO)NC(=O)[C@H](Cc1c[nH]cn1)NC(=O)[C@H](CCCNC(=N)N)NC(=O)[C@H](CC(C)C)NC(=O)[C@H](Cc1ccccc1)NC(=O)[C@H](CC(N)=O)NC(=O)[C@H](C)NC(=O)[C@H](CC(C)C)NC(=O)[C@H](CCCNC(=N)N)NC(=O)[C@H](CCC(N)=O)NC(=O)[C@@H](NC(=O)[C@H](C)NC(=O)[C@@H]1CSSC[C@H](NC(=O)[C@H](CCCCN)NC(=O)[C@@H](N)CCCCNC(=O)CC[C@H](NC(=O)CCCCCCCCCCCCCCCCC(=O)O)C(=O)O)C(=O)N[C@@H](CC(N)=O)C(=O)N[C@@H]([C@@H](C)O)C(=O)N[C@@H](C)C(=O)N[C@@H]([C@@H](C)O)C(=O)N1)[C@@H](C)O)C(=O)N[C@@H](CC(C)C)C(=O)N1CCC[C@H]1C(=O)N1CCC[C@H]1C(=O)N[C@H](C(=O)N[C@@H](CCC(=O)O)C(=O)N[C@H](C(=O)NCC(=O)N[C@@H](CO)C(=O)N[C@@H](CC(N)=O)C(=O)N[C@H](C(=O)N[C@@H](Cc1ccc(O)cc1)C(N)=O)[C@@H](C)O)C(C)C)[C@@H](C)O
As to B2, the “EC50 (cAMP production)” value worked out at 0.647 nM in assay [1], 19 nM in assay [2], 0.0145 nM in assay [3] and 3.65 nM with rat calcitonin receptor. For the same molecule, the “Ratio (EC50 hCTR / EC50 hAMYR3)” value in assay [1] was found to be 29.

B3: Peptide 44 (SEQ ID NO: 44) (peptide)
peptide: K([γGlu-C18 diacid])CNTATCATQRLANFLRHSS[Aib]NFGPILPPTEVGSNTY-NH2
modifications: disulfide 2-7; N-terminus assumed
SMILES: CC[C@H](C)[C@H](NC(=O)[C@@H]1CCCN1C(=O)CNC(=O)[C@H](Cc1ccccc1)NC(=O)[C@H](CC(N)=O)NC(=O)C(C)(C)NC(=O)[C@H](CO)NC(=O)[C@H](CO)NC(=O)[C@H](Cc1c[nH]cn1)NC(=O)[C@H](CCCNC(=N)N)NC(=O)[C@H](CC(C)C)NC(=O)[C@H](Cc1ccccc1)NC(=O)[C@H](CC(N)=O)NC(=O)[C@H](C)NC(=O)[C@H](CC(C)C)NC(=O)[C@H](CCCNC(=N)N)NC(=O)[C@H](CCC(N)=O)NC(=O)[C@@H](NC(=O)[C@H](C)NC(=O)[C@@H]1CSSC[C@H](NC(=O)[C@@H](N)CCCCNC(=O)CC[C@H](NC(=O)CCCCCCCCCCCCCCCCC(=O)O)C(=O)O)C(=O)N[C@@H](CC(N)=O)C(=O)N[C@@H]([C@@H](C)O)C(=O)N[C@@H](C)C(=O)N[C@@H]([C@@H](C)O)C(=O)N1)[C@@H](C)O)C(=O)N[C@@H](CC(C)C)C(=O)N1CCC[C@H]1C(=O)N1CCC[C@H]1C(=O)N[C@H](C(=O)N[C@@H](CCC(=O)O)C(=O)N[C@H](C(=O)NCC(=O)N[C@@H](CO)C(=O)N[C@@H](CC(N)=O)C(=O)N[C@H](C(=O)N[C@@H](Cc1ccc(O)cc1)C(N)=O)[C@@H](C)O)C(C)C)[C@@H](C)O
On to B3, for which the “EC50 (cAMP production)” value in assay [1] was determined as 0.284 nM; in assay [2], 6.26 nM; in assay [3], 0.0185 nM; with rat calcitonin receptor, 2.24 nM. Also, the “Ratio (EC50 hCTR / EC50 hAMYR3)” value in assay [1] amounted to 22.

B4: Peptide 8 (SEQ ID NO: 8) (peptide)
peptide: K([γGlu-γGlu-C18 diacid])CNTATCATQRLANFLVHSS[Dab]NFPAILSPTNVGSNTY-NH2
modifications: disulfide 2-7; N-terminus assumed
SMILES: CC[C@H](C)[C@H](NC(=O)[C@H](C)NC(=O)[C@@H]1CCCN1C(=O)[C@H](Cc1ccccc1)NC(=O)[C@H](CC(N)=O)NC(=O)[C@H](CCN)NC(=O)[C@H](CO)NC(=O)[C@H](CO)NC(=O)[C@H](Cc1c[nH]cn1)NC(=O)[C@@H](NC(=O)[C@H](CC(C)C)NC(=O)[C@H](Cc1ccccc1)NC(=O)[C@H](CC(N)=O)NC(=O)[C@H](C)NC(=O)[C@H](CC(C)C)NC(=O)[C@H](CCCNC(=N)N)NC(=O)[C@H](CCC(N)=O)NC(=O)[C@@H](NC(=O)[C@H](C)NC(=O)[C@@H]1CSSC[C@H](NC(=O)[C@@H](N)CCCCNC(=O)CC[C@H](NC(=O)CC[C@H](NC(=O)CCCCCCCCCCCCCCCCC(=O)O)C(=O)O)C(=O)O)C(=O)N[C@@H](CC(N)=O)C(=O)N[C@@H]([C@@H](C)O)C(=O)N[C@@H](C)C(=O)N[C@@H]([C@@H](C)O)C(=O)N1)[C@@H](C)O)C(C)C)C(=O)N[C@@H](CC(C)C)C(=O)N[C@@H](CO)C(=O)N1CCC[C@H]1C(=O)N[C@H](C(=O)N[C@@H](CC(N)=O)C(=O)N[C@H](C(=O)NCC(=O)N[C@@H](CO)C(=O)N[C@@H](CC(N)=O)C(=O)N[C@H](C(=O)N[C@@H](Cc1ccc(O)cc1)C(N)=O)[C@@H](C)O)C(C)C)[C@@H](C)O
For the molecule B4, the “EC50 (cAMP production)” value in assay [1] was found to be 0.375 nM; in assay [2], 20.2 nM; in assay [3], 0.0256 nM; with rat calcitonin receptor it was 19.9 nM. For the same molecule, in assay [1], the “Ratio (EC50 hCTR / EC50 hAMYR3)” value was 54.
